Where a chain is given by its changes, count along the chain named.
B1: VHH A24 (C5^h5) (VHH)
VHH: EVQLVESGGGVVQPGGSLRLSCAASGTDFSINFIRWVRQAPGKGLEWVAGFTATGNTNYADSVKGRFTISRDNAKNTLYLQMNSLRPEDTAVYYCYMLDKWGQGTQVTVSS
B2: C5^h16 (VHH)
VHH: B1 VHH with V11L, V37Y, W47F, A74S, P87A, Q106L
B3: C5^V20 (VHH)
VHH: EVQLVESGGGVVQPGGSLKLSCVASGHDFSINFIRWYRQAPGKQREFVAGFTATGNTNYADSMKGRFTISRDNTKNAVYLQIDSLKPEDTAVYYCYMLDKWGQGTQVTVSS
B4: C5^h26 (VHH)
VHH: B1 VHH with V37Y, M82I, N83D
B5: C5^h15 (VHH)
VHH: B1 VHH with A23V, A74T, N83D
B6: C5^h17 (VHH)
VHH: B3 VHH with H27T, Y37V, Q44G, R45L, V78L, K86R
B7: C5^h8 (VHH)
VHH: B1 VHH with A74T, M82I, N83D
B8: C5^h11 (VHH)
VHH: B1 VHH with V63M, A74T
B9: C5^V26 (VHH)
VHH: B3 VHH with H27T, M97V
B10: C5^V25 (VHH)
VHH: B3 VHH with H27T, M97L
B11: C5^V24 (VHH)
VHH: B3 VHH with H27T, Y96W
B12: VHH A10 (C5^V10) (VHH)
VHH: B3 VHH with H27T, I31L
B13: C5^h14 (VHH)
VHH: B1 VHH with A74T, T77A
B14: VHH A14 (C5^V14) (VHH)
VHH: B3 VHH with H27T, T57S
B15: C5^h10 (VHH)
VHH: B1 VHH with R19K, A74T, M82I
B16: C5^V21 (VHH)
VHH: B3 VHH with H27T, F51W
B17: C5^V22 (VHH)
VHH: B3 VHH with H27T, F51Y
B18: C5^V28 (VHH)
VHH: B3 VHH with H27A, T52S
B19: C5^h24 (VHH)
VHH: B1 VHH with V37Y, W47F, V63M
B20: VHH A21 (C5^h2) (VHH)
VHH: B1 VHH with G44Q, L45R, W47F
B21: C5^V23 (VHH)
VHH: B3 VHH with H27T, Y96H
B22: C5^h13 (VHH)
VHH: B1 VHH with V37Y, W47F, A74T
B23: C5^h12 (VHH)
VHH: B1 VHH with V37Y, W47F, M82I, N83D
B24: C5^h23 (VHH)
VHH: B1 VHH with G44Q, L45R, W47F
B25: C5^h21 (VHH)
VHH: B1 VHH with V37Y, W47F, R86K
B26: B8^V2 (VHH)
VHH: EVQLVESGGGVVQPGGSLRLSCAASGEIFSINFMRWYGQAPGKQREWVAGFTRDGSTNYPDSAKGRFTISRDNAKNTVYLQIDSLKPEDTAVYYCYMLDTWGQGTQVTVSS
B27: B8^V5 (VHH)
VHH: B26 VHH with G38R, Q44I
B28: B8^V11 (VHH)
VHH: B26 VHH with G26D, G38R
B29: B8^V9 (VHH)
VHH: B26 VHH with G38R, T57K
B30: B8^V8 (VHH)
VHH: B26 VHH with G38R, T57L
B31: B8^V7 (VHH)
VHH: B26 VHH with G38R, S56Y
B32: B8^V6 (VHH)
VHH: B26 VHH with G38R, S56F
B33: B8^V4 (VHH)
VHH: B26 VHH with G38R, G42I

Columns and labels:
Assay in all cases: apparent Kd, flow cytometry, CHO cells
[1] = biological target: T1, human transferrin receptor (hTfR) fused to EGFP, on CHO cells (human, UniProt P02786 1-760)
T1 construct: whole, on cells; also called human TfR; CHO-hTfR-EGFP; not shown: EGFP from pEGFP-C1 vector, fused to the N-terminal (intracellular) end of hTfR
Experimental: (§1) The binding properties of VHHs with affinity for the TfR from different species (i.e., human (h), mouse (m) and rhesus monkey (rh)) were tested using flow cytometry, and apparent affinities (Kd app) were determined. All experiments were performed in 96 well plates using 2×10⁵ cells/well, at 4° C. with shaking. CHO cell lines expressing the hTfR, mTfR or rhTfR fused to EGFP were saturated with PBS/BSA 2% solution during 30 min to avoid nonspecific binding, followed by incubation with purified VHHs at increasing concentrations for 1 hr. After one wash in PBS/BSA 2%, cells were incubated for 1 hr with an anti-6His tag antibody (mouse), washed twice with PBS/BSA 2%, and incubated for 1 hr with an Alexa647-conjugated anti-mouse secondary antibody. After two last washes in PBS/BSA 2%, cells were fixed by incubation for 15 min with PBS/PFA 2%, washed once with PBS and finally resuspended in PBS. Fluorescence levels were assessed using an Attune NxT flow cytometer (Thermo Fisher Scientific). Experimental data were fitted with GraphPad Prism® software using a nonlinear fit to determine the apparent Kd constants. […] Table 5 hereafter summarizes apparent Kd obtained for the tested VHHs.

[2] = biological target: T2, mouse transferrin receptor (mTfR) fused to EGFP, on CHO cells (mouse, UniProt Q62351 1-763)
T2 construct: whole, on cells; also called mouse TfR; CHO-mTfR-EGFP; not shown: EGFP
Experimental: as §1

[3] = biological target: T3, rhesus monkey transferrin receptor (rhTfR) fused to EGFP, on CHO cells (rhesus monkey)
T3 construct: whole, on cells; also called rhesus monkey TfR
Experimental: as §1

T2 sequence (Q62351 whole entry, the tested form may be a part): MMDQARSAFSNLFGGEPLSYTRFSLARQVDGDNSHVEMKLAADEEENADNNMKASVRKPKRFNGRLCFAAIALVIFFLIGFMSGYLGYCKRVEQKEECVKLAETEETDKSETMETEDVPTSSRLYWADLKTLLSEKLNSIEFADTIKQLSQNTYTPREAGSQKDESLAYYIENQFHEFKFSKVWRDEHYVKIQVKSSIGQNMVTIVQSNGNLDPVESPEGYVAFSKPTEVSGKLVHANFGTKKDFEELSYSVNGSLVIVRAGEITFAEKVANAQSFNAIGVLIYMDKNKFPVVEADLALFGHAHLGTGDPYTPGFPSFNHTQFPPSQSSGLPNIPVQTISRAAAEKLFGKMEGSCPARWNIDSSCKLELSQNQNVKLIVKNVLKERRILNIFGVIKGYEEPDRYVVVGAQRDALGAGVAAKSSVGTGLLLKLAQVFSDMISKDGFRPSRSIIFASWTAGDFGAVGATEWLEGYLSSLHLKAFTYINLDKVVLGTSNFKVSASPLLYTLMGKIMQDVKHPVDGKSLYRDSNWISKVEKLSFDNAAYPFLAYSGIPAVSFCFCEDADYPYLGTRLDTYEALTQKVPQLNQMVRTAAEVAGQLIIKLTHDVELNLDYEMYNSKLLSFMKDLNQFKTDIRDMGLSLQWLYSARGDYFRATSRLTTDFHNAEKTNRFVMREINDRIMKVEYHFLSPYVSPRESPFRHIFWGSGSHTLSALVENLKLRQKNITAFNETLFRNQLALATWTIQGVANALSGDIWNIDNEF
T1 sequence (P02786 whole entry, the tested form may be a part): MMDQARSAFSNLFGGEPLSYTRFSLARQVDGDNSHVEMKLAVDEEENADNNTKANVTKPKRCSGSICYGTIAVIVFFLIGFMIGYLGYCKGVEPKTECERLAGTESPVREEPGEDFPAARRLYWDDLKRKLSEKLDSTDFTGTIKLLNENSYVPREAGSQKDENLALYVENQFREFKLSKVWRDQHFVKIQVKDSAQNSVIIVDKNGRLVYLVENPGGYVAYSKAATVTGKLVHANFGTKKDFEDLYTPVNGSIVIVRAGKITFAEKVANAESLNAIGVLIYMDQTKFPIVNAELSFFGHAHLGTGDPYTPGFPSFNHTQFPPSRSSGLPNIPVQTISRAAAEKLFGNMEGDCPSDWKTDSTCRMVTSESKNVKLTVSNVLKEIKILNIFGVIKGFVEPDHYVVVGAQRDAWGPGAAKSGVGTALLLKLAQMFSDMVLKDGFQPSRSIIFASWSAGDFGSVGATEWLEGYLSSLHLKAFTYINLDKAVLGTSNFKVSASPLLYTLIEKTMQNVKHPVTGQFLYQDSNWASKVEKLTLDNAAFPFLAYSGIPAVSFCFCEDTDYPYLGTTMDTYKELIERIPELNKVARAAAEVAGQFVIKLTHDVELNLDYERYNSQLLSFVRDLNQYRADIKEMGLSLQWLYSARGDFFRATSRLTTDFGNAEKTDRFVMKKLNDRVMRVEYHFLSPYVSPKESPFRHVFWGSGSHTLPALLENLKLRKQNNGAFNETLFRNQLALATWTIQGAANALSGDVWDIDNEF

Row | Binder | Kd [1] [nM] | Kd [2] [nM] | Kd [3] [nM]
1 | B1 | 193 |  | 
2 | B2 | 8.1 | 582 | 760
3 | B3 | 2.5 | 125 | 6.1
4 | B4 | 4 | 675 | 656
5 | B5 | 1090 | 452 | 
6 | B6 | 630 | 898 | 
7 | B7 | 987 | 656 | 
8 | B8 | 1130 | 1370 | 1240
9 | B9 | 7.9 | 211 | 335
10 | B10 | 4.5 | 136 | 429
11 | B11 | 4.3 | 218 | 564
12 | B12 | 3.4 | 159 | 5.1
13 | B13 | 1100 | 164 | 
14 | B14 | 3.3 | 158 | 3.9
15 | B15 | 1070 | 845 | 
16 | B16 | 2.4 | 120 | 8.2
17 | B17 | 2.7 | 131 | 11

Row | Binder | Kd [1] [nM] | Kd [2] [nM] | Kd [3] [nM]
18 | B18 | 3.3 | 160 | 371
19 | B19 | 4.1 | 624 | 641
20 | B20 | 267 | 225 | 
21 | B21 | 4.5 | 254 | 353
22 | B22 | 8.3 | 554 | 730
23 | B23 | 4.3 | 331 | 361
24 | B24 | 594 | 1540 | 2000
25 | B25 | 8.8 | 600 | 1010
26 | B26 | 0.1 | 0.2 | 0.1
27 | B27 | 2.3 | 3.8 | 2.1
28 | B28 | 4.6 | 22 | 2
29 | B29 | 2.8 | 31 | 2.4
30 | B30 | 2.5 | 8.1 | 2.1
31 | B31 | 5.7 | 41 | 2.6
32 | B32 | 3.8 | 16 | 2.7
33 | B33 | 0.4 | 0.6 | 0.3

From US20230414780A1 (VECT HORUS, published 2023)
